Results on 15 sequences are retold here after a protein production outcome set (Wang et al. 2014).
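Also: failed if final PepcDB status was selected cloned or expressed and not failed if soluble or beyond.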

The nature of this data set: label from the status in PepcDB records.
As to “MELSQRQERIIEIVKTKGPITGEQIADKLNLTRATLRPDLAILTMSGFLEARPRVGYYYSGKSKGKFFNEKLRQFEVKDYMSQPVVLRENTTVYDAICTIFLEDVSTLFIINEDNDFVGVCSRKDLLRASMIGADIHTVPISVNMTRMPNVTYLEESELVIYAADRMIEKEIDSIPIVRKKDNQKYEVIGRISKTTIAKLLVALYKE”, the protein production entry is listed as “not failed”.
Take “MELTELLDIGRQERSQQKPVQIRCCTAAGCLSANSQAVQQQLEQAVKAEGLEGEVQVSGVGCMRLCCQGPLVEVEGSGEEKTKQRLYEKVTPEDASAIIGAL”: the protein production result was “failed”.
For the sequence “MELVFDKDGLSAYLEEVFPQIQGEFSIDALAKGEITMRLNVQERHLRPGGTVSGPSMFALADVSVYALVLAHLGREALAVTTNASLDFMRKPESGRDLLGQARLLKLGRTLAVGDILLFSEGMEAPVARSTMTYSIPPKR”, the protein production result is on record as “not failed”.
For the sequence “MEMNRRRSRGFMIAKLMPFCKAVKSPTPSQDLYNNVHYTSSTTTSYARQPDFNNYVTATTPLPPKVSFLLQPSLAPEGKDMEKKLNMMAEKLIGRGINGVDDCVDARAASYISSVRERFKADQYCEKLTTVISLDDEN”, the protein production result is on record as “failed”.
For “MENDDVMTPPWLTPMLRADYFVTCSIHSQSSKSECNLFCLDCSGNAFCSSCLAHHRTHRVIQIRRSSYHNVVRVSEIQKHIDISCIQTYVINSAKIFFLNARPQCRTGKSLNKTCQICSRNLLDSFLFCSLACKLEGVKNGEDPNLTLFHSGKSDDSSKIINTGICSRLIDGISIAVDDQRSETAGVLSPETPSIESHRNYPMKSRRKGIPQRAPF”, the protein production result is “failed”.
For “MENEENSAREQEADDFLHIASVKEDWGGDGRGRMNLSGRRTAIAKEYLPRQYQFFDTNTVMEKQGWRVRGMPDNIAPGSRRLLTWHDSGASTSRVVLPPKFEAPSGIFTADLEIFVIKGAIQLGEWQLNKHSYSFIPAGVRIGSWKVLGGEEAEILWMENGSVPLEYKYAQEDHPDARLSDFIPALDSKLLPWGKADTVQFVQANKKWLRKDINGGGVWLLAILPHFDNKYQMIQPYNEEGYCLTGYCDVGDYRIVKDHYWYCPSFSTLPRHITDDGGLFFVRVDRDLSKVATVLSYAPQDT”, the protein production entry is recorded as “not failed”.
As for “MENETVSELNQTQLQPRAVVALEYQVVTILLVLIICGLGIVGNIMVVLVVMRTKHMRTPTNCYLVSLAVADLMVLVAAGLPNITDSIYGSWVYGYVGCLCITYLQYLGINASSCSITAFTIERYIAICHPIKAQFLCTFSRAKKIIIFVWAFTSLYCMLWFFLLDLNISTYKDAIVISCGYKISRNYYSPIYLMDFGVFYVVPMILATVLYGFIARILFLNPIPSDPKENSKTWKNDSTHQNTNLNVNTSNRCFNSTVSSRKQVTKMLAVVVILFALLWMPYRTLVVVNSFLSSPFQENWFLLFCRICIYLNSAINPVIYNLMSQKFRAAFRKLCNCKQKPTEKPANYSVALNYSVIKESDHFSTELDDITVTDTYLSATKVSFDDTCLASEVSFSQS”, the entry is “failed”; as for “MENGLAQGIGGIAFLVGVMAFWQKDDLRFRYQMMAFCFIMGVHFALLGATVAAIGVVINGIRSFASIKTQSRKVMWFFIALMWLMTLPNMSHFFELLTVIGSSVATWALFSKQGIALRSLILFNSFCWVSHNLWLGSIGGSLVESTFIVTNLLTIYRLFHAQERISQTQNNQFLASNTESSTD”, “failed”.
As to “MENRSHALLAGLFTLALLVAAALVAIWVGRDRAALKPYVIVSATSVSGLSAQSTVRYQGVPVGKVQSLGFNPDKPAQVRISIGVAPDTPITESTWAELGVQGVTGLGNIELRDDGTSTRRLASSAAMPATIPLRPGFFQRFEQRGGEILHNVEQVSARLERLLSNENVQATTATLQNIAAITTDLRQAATELRPALAQVPPLVDSLQAMSRNTGQAAQEIAGLAQAARQALARLDAPDGPLAMATRSMRDIAWAAARLDAQTLPAVSGMASSIDSAARSATTTLRRVGDTPQSLLFGPPPTVPGPGEPGFAGFGR”, the protein production result is recorded as “failed”.
Turning to “MENWDLSSDEMQDGNAPELDVIEEHNPVTRDDENANPEEVVGDTRSPVQNILGKFEGDINKRLHIKRKRMETYIKDSFKDSNVKLEQLWKTNKQERKKINNKFCEQYITTFQKFDMDVQKFNEEQEKSVNNYQKEQQALKLSKCSQSQTLEAIKDMHENYMEGLMNLETNNYNMLFDVDGELRKEMSVFKKDLMKHTLKYSSSFPSSD”, the protein production entry was “failed”.
Regarding “MEPCLHPTLVDETSLVLYLDLARETGYRYVDVPFHWLEAEAERHGDAAVEAMFQRRGLVLANLGLPLNLYDSEPVFLRELSLLPDRARLCARLGARSVTAFLWPSMDEEPVRYISQLARRIRQVAVELLPLGMRVGLEYVGPHHLRHRRYPFVQSLADLKTFWEAIGAPNVGALVDSYHWYTAGEHEDDLAQLPPEKVVYVHINDTRDAPEDAHDGKRLLPGDGRIPLVPFLRGLYLAGYRGPVAAEVLHETPLDGTGESRARLVRERLEKLIALAKGEN”, the protein production result was “not failed”.
As for “MEPHAESAAAGQAAPPEKRRASWFTRMGRVVRFAGQRADEQKLLQVASSLTFTTVLAIVPMLAVVLSLFTAFPVFQEFRVALEDFLANSLMPPSVSDNIMDYLNQFARQATRLTAIGGAFLIVTSLLLIMTIDKTFNDIWQVTRQRPLPQRALVYWAVITLGPVVAGASLWATSFVARESLGLVRDVPEAVSVAISFIPLVLTGLGFAALFVVVPNRRVYWKDALVGGFGTAIVLELMKAGFAYYLTRFPAYTVIYGAFATLPIFLLWIYLSWLAVLFGATVAASAPLIRLGRWEINRHAGAPFIDALGVLRVLHAAQGSRPAGRSANALAKRLRLHHDELNAVLEALEDMELVARTAEQRWVLTCDPRTTTLEPVFDRFLLDRGQPRLRDEPEIAAVAAGVLGQGPDPTLADLAGVAQNTDIGPAAAVLQLETGKK”, the protein production result is reported as “failed”.
“MEPSCTQNGMKPKLKISDLSRSLGPGIMMAAAAVGGSHLVASTKAGAIYGWEMLLLILAVNLLKYPFFRAGVQYTLGTGDSIIQGYHKLGRGYLWVFLVLSAISAVVNTAALLLFSASLLGYFLPFDLSLNVLSSIVLITCITILFAGHFKALDKLSKLIMATLTIATTIALGVAFSNGAVAPTDYQGPSVWSIASIGFLVITMGWMPAPIEISSITSMWLKRQCQTQKVTPQSALFDFNVGYIGTAILAVVFLSLGALVLYGSGIEFKASGIGFSHQLVGIYAATIGEWSRYLIAVIAFFCIFGSTITVIDGYSRAVSEAQLLLQRKPLNQPKHYNSWVMIVSVLAITIVTLFISSLMSMLDFAMIMAFITTPIFAALNYILVTKTELPDELRMGAKLKALSIVGLIYLFGFLAIFVWWKWLM”: the protein production entry is reported as “failed”.
“MEQDASAKNPDIETENKGAISEEEALIQREYSLLIQDYLNSNHRRKVEKIDKAFHLAKDAHAGAKRRSGEPYILHPIAVARIVCQEIGLGSTSICCALLHDVVEDTEYTVEDMRDMFGDKVAQIVDGLTKISGEVFSNSSAQAENFRKLILTMNDDIRVILIKIADRLHNMRTLDSMLPAKQMKIAGETQYVYAPLAHRLGLFAIKSELEDLSFKYEHPQEYEAIKEKIRITEQHRLEMFEHFAAPLKQRFAGMDMSYEMKARVKSVYSIWKKMEKKGVPFEEIYDLFAVRIIFESSPTIPDKNRCWEIYSAITDIYRNRPDRIRDWVSNPKSNGYQALHLTVMGPDGEWVEVQIRSRRMDDIAEKGFAAHWKYKGDNVEEDSELEKWLSTIQEILENPNPNALDFLDTIKLNLFSNEVMVFTPKGEIKRLPQGATALDFAYSLHSDLGDHCIGAKVNHKLVPLSYVLNSGDQVEVLSSKSQQPTEEWLRYVTTARAKSKVDTFLRRKRRELINRGEERVVSVIRTSESMVSAELLDRIAAYFGFLNRETFFYAVGTGTVSLPESFKKLLQGEHSGNFLMRAIRSALKAGKSNKTSSPSGKPAEKEDKKAYNTKKTYILQEDEFSRNYQIAECCKPIPGDDAFGFINDDNTVVVHKRSCPIAMRLKSSFGNRILSTEWSLHSRTSFEAKLALKGIDSTGILTAVTQVISEDFNVGIKHIQLTAKDGIFEGQIHLLVHSSDDLLKICHQLRQNKYIQSVGRIS”: the protein production entry is on record as “failed”.
For “MEQDTQHVKPLQTKTDIHAVLASNGRIIYISANSKLHLGYLQGEMIGSFLKTFLHEEDQFLVESYFYNEHHLMPCTFRFIKKDHTIVWVEAAVEIVTTRAERTEREIILKMKVLEEETGH”, the protein production result is on record as “failed”.
